Details in all cases: pH 7.0, 50 mM Tris-HCl, 25 °C, 2 mM SDS as activator of the latent enzyme
Data set [1] concerns the target T1, L-PaPPO (recombinant latent apricot polyphenol oxidase) (Prunus armeniaca, UniProt O81103, S149R/A376C/R416N/V417C).
T1 construct: gene PPO

Substrate in data set [2]: NCCc1ccc(O)cc1
In words: purified protein. Type of data set: biochemical, Prunus armeniaca.

Substrate in data set [3]: NCCc1ccc(O)c(O)c1
The experiment in a line: purified protein. The class given is biochemical, Prunus armeniaca.

These results are taken from PMC8789516, “Polyphenol oxidase and enzymatic browning in apricot (Prunus armeniaca L.): Effect on phenolic composition and deduction of main substrates” (Current Research in Food Science, 2022).

Broadly, the Km is the substrate concentration at which the rate is half of its maximum. Broadly, the kcat is the maximal rate divided by the concentration of active sites. One may read the kcat/Km as the second-order rate constant that governs catalysis at low substrate concentration.

Take `O=C(/C=C/c1ccc(O)c(O)c1)O[C@@H]1C[C@](O)(C(=O)O)C[C@@H](O)[C@H]1O` [Chlorogenic acid]: the Km in data set [1] was 1520 ± 100 µM.
Take `O=C(/C=C/c1ccc(O)c(O)c1)O[C@@H]1C[C@@](O)(C(=O)O)C[C@@H](O)[C@@H]1O` [Neochlorogenic acid]: the Km in data set [1] was found to be 1470 ± 290 µM.

B1: L-PaPPO (recombinant latent apricot polyphenol oxidase) (Prunus armeniaca; A376C/R416N/S149R/V417C) (protein)
chain: DPIAPPDLTTCKPAEITPGGSETVPCCPPVTTKIKTFKPDLSIPLRTRPAAHQVTDEYLAKFKKAQAAMRALPDDDPRSMVQQAKVHCAYCNGAYPQVGFTDNDIQVHFSWLFFPFHRMYLYFYERILGKLIDDPTFALPYWNWDSPVGFPIPDIYTDTSSPLYDQYRNADHQPPVLVDLSYGGKDDDVDEQTRIDENLAIMYRQMVSGAKTPDLFFGHAYRAGNLNTGKYPGTIENMPHNNIHIWVGDPSQTHQEDMGNFYSAGRDPLFYAHHCNVDRMWNIWKTLGGKRKDITDTDWLDAEFLFYDENAELVNCKVRDSLEPEKQLRYNYEPVSLPWLFTKPTARKTKNKTKAKVAATQLTSKFPATLVEVTTVEVARPKPRKRSKKEKVDEEELLIIKDIEFEGTEAVKFDVFINDDAESLSRRDKSEFAGSFVHVPQGKTTKAKTKTNLKLGITDLLEDLGAEDDSSVLVTLVPRVSNSPITIGGFKIEYSS
notes: latent form Asp102-Ser597 (active plus C-terminal domain), signal peptide removed; Gly-Pro-Met left after HRV 3C cleavage of GST; E. coli SHuffle T7; intron removed
B1: in data set [2], the Michaelis-Menten constant (Km) is 4480 ± 360 µM, the kcat is 1.42 ± 0.13 s⁻¹ and the specificity constant (kcat/Km) turned out to be 318 ± 29 M⁻¹ s⁻¹. In addition, in data set [3], the Km is 1610 ± 160 µM, the kcat came out at 162 ± 3.3 s⁻¹ and the kcat/Km was found to be 99800 ± 2900 M⁻¹ s⁻¹.
